The values below come from the supplement of paper PMC12042874.

This data set can be described thus: amyloid nucleation score (Sup35N fusion, yeast selection) (log enrichment); library NNK3; higher = more nucleation; inactive = no reads after selection. The procedure, abridged:
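Libraries of peptides of 20 random codons fused to Sup35N were expressed in psi-negative yeast and induced 24 hours with 100 μM copper sulfate. Selection was 7 days at 30°C on medium lacking adenine and uracil, and plasmid inserts were Illumina-sequenced before and after selection. Nucleation score is the DiMSum log enrichment of output over input reads, centred on the mode score of non-aggregating sequences, and sequences with under 100 input reads were left out.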

± gives the uncertainty stated by the source.

Consider GASNMFHDPELSG, for which the amyloid nucleation score entry was “inactive”. On to DNHVVKVQL, for which the amyloid nucleation score result was “inactive”. In the case of YRRKVELIRSLRW it was “inactive”; in that of FSFITLMVTLSSVKIGEIWW, “inactive”.

Substance AWMVFCPCKMCMCRCYL had an amyloid nucleation score of 1.41 ± 0.073. In the case of ILIYVQML it was 0.521 ± 0.22. In the case of SWCSPNGPQGLEVCSMRPFR it was “inactive”; in that of VCRGQRISACQSRSVCGCWH, “inactive”; in that of LNTKEYLLYKRICTSNANLL, -0.621 ± 1.1. To DTVMRSVLEAIVYINKIFVR belongs “inactive”; to IIMRDYTAMCI, “inactive”.

DFLLATDQVGYKDLDLGTKV: the amyloid nucleation score entry was “inactive”. Turning to AWAVEATRFILLRWGQGTWD, the amyloid nucleation score is -0.247 ± 1.3. Regarding FPARLYGYMFLKNSTLRFSR, the amyloid nucleation score result was “inactive”. In the case of VFMCILDWRVNSHMCLKLFH it was “inactive”. In the case of SKSNIRYSNTNGH it was “inactive”; in that of SMNFLICMIWSIVS, 1.02 ± 0.21; in that of ILVTLMVYIPHEYISVINLL, “inactive”.

With WIMWNMRAKNLKLLPARARV, the amyloid nucleation score result is “inactive”. In the case of PVNEFYYLFCKRVYPCALQI it was 0.295 ± 0.53. To DRFFTSFSVCSPNDDKGLL belongs “inactive”; to SYWRLHVIIFLWFFYLRYFN, “inactive”; to YYLVSSMFYMFQSNEVNGNM, “inactive”. In the case of MLEGQSSCRVITDLARL it was “inactive”; in that of RDNLLGLTGNTTGDFTPGTV, “inactive”; in that of RKFAGYQSSNASGSPVQGMS, “inactive”.

Regarding GVLEAFLTDIIPMYGYVRVA, the amyloid nucleation score result was “inactive”. To FTMNQGSDVEVFLSSMF belongs “inactive”. In the case of FYHNNYINANHVWRKSY it was “inactive”; in that of VNVNSKYNVFLLMCRGVEVI, “inactive”. In the case of NTPVGLINYSGDTWLMAIRW it was “inactive”; in that of FVNSRVLWMIKIC, “inactive”; in that of YTGSVRFVEM, “inactive”. Take SRWYFGLLLMNNTHTVNVPL: the amyloid nucleation score entry is “inactive”. To RLYRRSCVSSR belongs “inactive”; to SRVHPPLWIKCTVGMVPQTC, “inactive”; to KTYEETSDTYYFQVLFTNPI, “inactive”. To DRGVLFRHIILGSPHIMNRV belongs “inactive”. In the case of NNNPVGILQNSCVGVIFNHS it was -0.517 ± 1. Regarding LMNEY, the amyloid nucleation score entry is “inactive”. In the case of YTYECRCH it was “inactive”; in that of HGGMVSMGGNKQ, “inactive”.

As for HYAVQYTNRYKGFKLHKQHN, the amyloid nucleation score entry was “inactive”. In the case of WHCVSFKLNDL it was “inactive”.

Consider QINMYMVNSRWVTFGIGMLS, for which the amyloid nucleation score amounted to 2.37 ± 0.055. In the case of YEDAAILDVCDPQIELLLHQ it was “inactive”. Take FLVCSGSNVWTREASHGGGN: the amyloid nucleation score was -0.188 ± 0.47. In the case of CCFNMW it was 1.46 ± 0.09; in that of GIRYQRFVRRVFHDYWR, “inactive”; in that of HLPKLLYATFKWSRYSSKFA, -0.172 ± 1.3. In the case of YVRSYLILS it was “inactive”; in that of ICYTALGCYISSQFSGWGRM, 1.12 ± 0.088; in that of CRSWVPMGGDLHRGWSLANK, “inactive”. To SMWQQVYSLSTLF belongs “inactive”; to RSILRNSLSTQMHIGSVSLM, “inactive”; to LRNVYTRVEITQLLTRTSGS, “inactive”. On to MTLWDWDYRLIVRIQLRSTQ, for which the amyloid nucleation score entry is “inactive”. To SFYPLCRQAVTDMFNKHCFP belongs “inactive”; to WCLPNCPIVFNMHQLAHLSR, 0.021 ± 0.44. To RRSSARGIRYMYSLNCNGEL belongs “inactive”. For VVVGIGVAALYEPV, the amyloid nucleation score result was “inactive”. To WPLYNFVISWIGRTYYSVYL belongs “inactive”; to ANGNNSLTATLTNAVD, “inactive”; to CFRVYVPNSKSDDL, “inactive”. Substance TLNVFVNN came in with an amyloid nucleation score of 2.26 ± 0.056. In the case of WVCYNKFSVCVWLVDKAD it was 2.01 ± 0.095; in that of LTMSRMMYLDKMLYFLYVQW, “inactive”; in that of RIPSGFTL, “inactive”. To DCALAAGMK belongs “inactive”; to APENKVYVRAQVKTACKFRG, 0.213 ± 0.81; to RVHLGGMYRWVCEVNV, “inactive”.

In turn, RWNMLIDVHLNVYHRQDRWC gave an amyloid nucleation score of 0.636 ± 0.23. In the case of ALMRVSSLCHLSGKVCLTLA it was “inactive”. To VNGTLGFIGRETLYGTTRLT belongs “inactive”. With VYSDDVKVVYMYGTNPFDTV, the amyloid nucleation score result was “inactive”.

With QYRRRVYDYVGCTRLWKNLW, the amyloid nucleation score is -0.682 ± 0.93. In the case of AYSSQSTCTFCASIFSDSKI it was 2.68 ± 0.077; in that of AIIVQLIDLLMRPARPVFVE, “inactive”; in that of LASNDFTDVLHWC, “inactive”. In the case of GFYLVKSSMSWVANWCGKHT it was “inactive”; in that of LCETYYHHTARGLHLASLVS, “inactive”; in that of CSDATIGQNSGSHDQLNRSD, “inactive”. In the case of LLYYSSINYFLLLGFCSEEL it was 1.51 ± 0.065; in that of GLFRFFVIIITEEVRRAVSK, “inactive”; in that of VGYFV, “inactive”. As for SPNWGLLGICLSTSRVQAL, the amyloid nucleation score is 1.86 ± 0.082.

In the case of CYFLQ, the amyloid nucleation score result was “inactive”. To MSPIDGDDSG belongs “inactive”. In the case of HNLVSSSSTCCRRHPCMAG it was “inactive”. In the case of YGKFMLLPVAGGIFVFENML it was 1.25 ± 0.14; in that of QSCCF, “inactive”; in that of NFIALSLFKLVCSAEICWLN, 0.617 ± 0.39. Consider CTHLLFCPMGRVSTCSLKME, for which the amyloid nucleation score result was “inactive”. As to ICGIDSLN, the amyloid nucleation score result is “inactive”. In the case of WGTLTLCTGDAGLSMTGKWV it was 0.399 ± 0.43. As to CANCMNNVCVSCGCSLQLTL, the amyloid nucleation score came to 2.89 ± 0.054. In the case of YRFRRDNLWCTWSSYMYMYC it was “inactive”; in that of NELCVTFLGCRPYVPA, -0.469 ± 1.1.

As for SWIKEFIQFIFIEGFRC, the amyloid nucleation score result is “inactive”.

For the substance CYGKLDGMTNDEEGTPVFAN, the amyloid nucleation score result was “inactive”. To GKISTRFRFFSVDETRPTIN belongs 1.18 ± 0.15; to FHSWIFQTISLPGQGYRLQ, “inactive”; to SCTVKSAGGFVSHRFNGSMG, “inactive”. The substance VEYNWSLFFNPRDFRGARDL registered an amyloid nucleation score of 0.505 ± 0.27.

In the case of HVDPCWQKTFTMMLFWVFLR, the amyloid nucleation score result was “inactive”. To AMCALVSIRP belongs “inactive”; to ATELYLGVICNKMRW, “inactive”. To QTLNERTWTGYDIHVRHVRR belongs “inactive”. On to TFCFLQVN, for which the amyloid nucleation score entry was “inactive”. In the case of IIIRGSSVLVVRLNDEGYVL it was 0.216 ± 0.63; in that of SVRVYGDCLCECWSCYTPRT, 0.502 ± 0.32. To SVRFDDAMIDGITSAYMIKY belongs “inactive”; to DYYSCFISYRLIRYWICGEA, “inactive”; to AYIDNRSYVCDALKCLW, 2.92 ± 0.055. In the case of GDEWGSFLECFITITSSIND it was “inactive”; in that of ILVKIRNRCLEVE, -0.32 ± 1.1; in that of FVEISRSGLLWFDF, “inactive”. Regarding RWNEAHITSYVYSRTSMWVF, the amyloid nucleation score entry is “inactive”. To IRRWPWYIMCYVLLQSFLSL belongs “inactive”; to KYYLALIYSKLRMIVSCFGF, 0.033 ± 0.44; to IRSVL, “inactive”. To RSHLWGRLASYAMGTHAG belongs “inactive”; to CILYRFPPATKSHRITGIYK, “inactive”. To CTHVLRNWGIKNGP belongs “inactive”.

As to IFMITDQ, the amyloid nucleation score result was “inactive”. In the case of FIHLMLNMRFWRNTFNMPHA it was “inactive”; in that of PRYAVALSLD, “inactive”. In the case of LASRSHKHINATLAHLNPLL it was “inactive”; in that of VMFLFGYNKVFKLSICWIGS, “inactive”; in that of QMVIHTVLGLKSLCVMFPSR, 1.04 ± 0.088. In the case of HPESCPGLGSLSGEPR, the amyloid nucleation score entry was “inactive”.
